Measurements reported in patent US8734849B2, “Multiparticle pharmaceutical dosage form containing a mucoadhesively formulated peptide or protein active substances method for producing said pharmaceutical dosage form” (Evonik Roehm GmbH, priority 2003, dated 2014).
Where a SMILES comes first, the peptide text is derived from it. [ ]: non-standard residue; d: D form. dPhe(4-Cl) = N[C@H](Cc1ccc(Cl)cc1)C(=O)O; d2Nal = N[C@H](Cc1ccc2ccccc2c1)C(=O)O; dCit = NC(=O)NCCC[C@@H](N)C(=O)O; d3Pal = N[C@H](Cc1cccnc1)C(=O)O

Assay: Solubility in water according to DAB 10
Assay type: physicochemical
Description: The solubility in water for the active substance and the substance or substances forming the lipophilic matrix can be defined as specified in DAB 10 (Deutsches Arzneibuch, 10th edition with 3rd supplement 1994, Deutscher Apothekerverlag, Stuttgart und Govi Verlag, Frankfurt/Main, 2nd supplement (1993), IV Allgemeine Vorschriften, pp. 5-6, “Löslichkeit und Lösungsmittel”; see also Ph. Eur. Jul. 4, 2004). The solubility is defined by the number of parts by volume of solvent for 1 part by weight of substance or drug. The definition of “sparingly soluble” includes substances which require from 30 to 100 parts by volume of solvent for 1 part by weight of substance or drug, and the definition of “slightly soluble” includes substances which require from 100 to 1000 parts by volume of solvent for 1 part by weight of substance or drug.

With “Erythropoetin alfa: slightly soluble protein active substance” the “solubility in water according to DAB 10” value was “at least 500 parts of water for 1 part of active substance” and the “solubility in water, equivalent” value was 2000 µg/mL.
With CC(=O)N[C@H](Cc1ccc2ccccc2c1)C(=O)N[C@H](Cc1ccc(Cl)cc1)C(=O)N[C@H](Cc1cccnc1)C(=O)N[C@@H](CO)C(=O)N[C@@H](Cc1ccc(O)cc1)C(=O)N[C@H](CCCNC(N)=O)C(=O)N[C@@H](CC(C)C)C(=O)N[C@@H](CCCNC(=N)N)C(=O)N1CCC[C@H]1C(=O)N[C@H](C)C(N)=O [Cetrorelix acetate] (Ac-[d2Nal][dPhe(4-Cl)][d3Pal]SY[dCit]LRP[dA]-NH2) the “solubility in water according to DAB 10” value was “at least 1000 parts of water for 1 part of active substance” and the solubility (equivalent of the DAB 10 parts) was 1000 µg/mL.
